How the values were obtained:
[1] = target: T1, angiotensin converting enzyme-2 (ACE-2), full-length ACE-2 protein (UniProt Q9BYF1 18-740); test: FITC-labeled ACIS (FIG. 4B)
T1 construct: also called ACE-2 enzyme; ACE-2 receptor

[2] = target: T1, angiotensin converting enzyme-2 …; test: fluorescence polarization; FITC-tagged ACIS peptide titrated with hACE-2

T1 sequence (Q9BYF1 18-740 limits assumed): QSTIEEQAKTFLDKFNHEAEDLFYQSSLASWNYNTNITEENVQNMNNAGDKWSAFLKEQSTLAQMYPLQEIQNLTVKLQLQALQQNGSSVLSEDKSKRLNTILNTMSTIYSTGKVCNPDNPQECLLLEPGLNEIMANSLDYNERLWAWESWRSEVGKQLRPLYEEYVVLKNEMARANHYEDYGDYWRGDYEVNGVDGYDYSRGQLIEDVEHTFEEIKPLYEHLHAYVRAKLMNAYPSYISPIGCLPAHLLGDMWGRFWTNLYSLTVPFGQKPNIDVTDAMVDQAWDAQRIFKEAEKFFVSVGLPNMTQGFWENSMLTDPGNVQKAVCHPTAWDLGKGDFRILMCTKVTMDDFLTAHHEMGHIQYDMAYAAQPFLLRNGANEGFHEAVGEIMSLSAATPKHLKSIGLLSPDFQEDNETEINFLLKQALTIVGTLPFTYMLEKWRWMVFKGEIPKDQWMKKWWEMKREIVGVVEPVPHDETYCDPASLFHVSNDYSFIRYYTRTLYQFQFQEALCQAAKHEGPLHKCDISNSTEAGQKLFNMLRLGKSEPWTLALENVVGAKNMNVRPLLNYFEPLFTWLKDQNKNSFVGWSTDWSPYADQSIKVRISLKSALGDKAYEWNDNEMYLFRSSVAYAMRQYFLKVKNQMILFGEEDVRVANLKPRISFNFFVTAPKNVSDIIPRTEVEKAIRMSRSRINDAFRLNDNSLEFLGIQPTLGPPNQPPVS

B1: KEPTIDE2 (FITC tagged KEPTIDE; ACIS peptide tagged with FITC probe at C-terminal end) (peptide)
peptide: FQPTNGVGYQPYGK
modifications: FITC at the C-terminal end (on the C-terminal lysine tag according to paragraph 109)
notes: also called FITC-tagged ACIS peptide; FITC-labeled ACIS
IC50 [1]: 24.5 nM
EC50 (read off the curve) [2]: ~6 nM
Kd [2]: 6.38 nM

From patent US11078242 (SOTIRA COVID, dated 2021)
